Assay results published in patent US20190119389A1 (POTENZA THERAPEUTICS, published 2019).
Positions count from the first letter of the chain named. Names and notes keep the numbering of the source.

T1: Cyno NRP-1 His (cynomolgus monkey, UniProt O14786 22-856 (human entry), limits assumed)
T1 construct: Recombinant monomeric protein; also called cynomolgus monkey NRP-1-His; cNRP-1; not shown: His tag
T1 chain: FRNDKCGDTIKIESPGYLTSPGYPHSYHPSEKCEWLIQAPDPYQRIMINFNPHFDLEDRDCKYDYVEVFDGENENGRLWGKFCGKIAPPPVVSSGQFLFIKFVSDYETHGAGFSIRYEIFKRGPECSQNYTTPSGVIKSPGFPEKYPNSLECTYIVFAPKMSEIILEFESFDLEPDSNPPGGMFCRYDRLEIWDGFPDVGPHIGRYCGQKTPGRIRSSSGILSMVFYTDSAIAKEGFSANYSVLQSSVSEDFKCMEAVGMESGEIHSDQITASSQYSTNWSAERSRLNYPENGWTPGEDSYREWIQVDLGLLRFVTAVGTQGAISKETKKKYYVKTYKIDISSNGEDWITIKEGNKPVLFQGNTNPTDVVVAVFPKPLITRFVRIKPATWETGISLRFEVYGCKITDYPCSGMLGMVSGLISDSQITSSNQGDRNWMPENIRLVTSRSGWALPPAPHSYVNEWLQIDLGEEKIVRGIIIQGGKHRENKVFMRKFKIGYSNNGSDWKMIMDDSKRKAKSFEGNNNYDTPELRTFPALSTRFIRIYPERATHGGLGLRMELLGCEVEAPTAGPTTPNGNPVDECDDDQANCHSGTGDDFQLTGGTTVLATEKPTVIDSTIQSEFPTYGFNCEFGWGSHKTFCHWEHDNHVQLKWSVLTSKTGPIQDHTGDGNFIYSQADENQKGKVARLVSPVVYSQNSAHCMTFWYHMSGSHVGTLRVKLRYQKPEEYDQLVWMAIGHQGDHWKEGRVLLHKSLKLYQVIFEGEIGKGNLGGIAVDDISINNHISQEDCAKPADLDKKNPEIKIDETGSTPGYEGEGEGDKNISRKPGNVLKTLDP

B1: MAB10 (antibody, V domains shown)
VH: EVQLLESGGGLVQPGGSLRLSCAASGFTFSSVAMVWVRQAPGKGLEWVSAISGSGGATYYADSVKGRFTISRDNSKNTLYLQMNSLRAEDTAVYYCAKDPGYDSSRYYYSNYGMDVWGQGTTVTVSS
VL: DIQMTQSPSSLSASVGDRVTITCRASQSISSYLNWYQQKPGKAPKLLIYGASSLQSGVPSRFSGSGSGTDFTLTISSLQPEDFATYYCQQTYSLYTFGGGTKVEIK
B2: MAB12 IgG4 S228P (antibody, V domains shown)
VH: B1 VH with K65E
VL: DIQMTQSPSSLSASVGDRVTITCRASQSISSYLNWYQQKPGKAPKLLIYGASSLQSGVPSRFSGSGSGTDFTLTISSLQPEDFATYYCQQTYSLYTFGGGTKVEIKR
B3: MAB8 (antibody, V domains shown)
VH: B1 VH with S30A, V32Y, A50I, A57S
VL: B1 VL
B4: MAB11 (antibody, V domains shown)
VH: B1 VH with K65E, N84S
VL: B1 VL
B5: MAB9 (antibody, V domains shown)
VH: B1 VH with S30K, V32Y, A50I
VL: B1 VL
B6: MAB5 IgG4 S228P (antibody, V domains shown)
VH: QVQLVQSGAEVKKPGASVKVSCKASGYTFTSYYMHWVRQAPGQGLEWMGIINPQGGDTSYAQKFQGRVTMTRDTSTSTVYMELSSLRSEDTAVYYCARDRGMYYASGFGPWGQGTLVTVSS
VL: EIVMTQSPGTLSLSPGERATLSCRASQSVSSSYLAWYQQKPGQAPRLLIYGASNRATGIPDRFSGSGSGTDFTLTISRLEPEDFAVYYCQQLSSFPITFGGGTKVEIKR
B7: MAB6 (antibody, V domains shown)
VH: B6 VH with E10K, A40V, G109N
VL: EIVMTQSPGTLSLSPGERATLSCRASQSVSSSYLAWYQQKPGQAPRLLIYGASNRATGIPDRFSGSGSGTDFTLTISRLEPEDFAVYYCQQLSSFPITFGGGTKVEIK
B8: MAB2 IgG4 S228P (antibody, V domains shown)
VH: QVQLVQSGAEVKKPGASVKVSCKASGYTFRSYYMLWVRQAPGQGLEWMGIIDPSDGSTSYAQKFQGRVTMTRDASTSTVYMELSSLRSEDTAVYYCARGARRITGYGMDVWGQGTTVIVSS
VL: DIQMTQSPSSVSASVGDRVTITCRASQGISSWLAWYQQKPGKAPKLLIYAASNLQSGVPSRFSGSGSGTDFTLTISSLQPEDFATYYCQQASVFPFTFGGGTKVEIKR
B9: MAB3 IgG4 S228P (antibody, V domains shown)
VH: QAQLVQSGAEVKKPGASVKVSCKASGYTFSRYYMHWVRQAPGQGLEWMGIINPLGGSTLYAQKFQGRVTMTRDTSTSTVYMELSSLRSEDTAVYYCARDLGYYGSGMHAWGQGTLVTVSS
VL: B8 VL with S31R, N53S, S92N, V93L, F94L
B10: MAB13 IgG4 S228P (antibody, V domains shown)
VH: QVQLQQWGAGLLKPSETLSLTCAVYGGSFRGYYWEWIRQPPGKGLEWIGEISHSGSTNYNPSLKSRVTISVDTSKNQFSLKLSSVTAADTAVYYCARARPYREPYGMDVWGQGTTVTVSS
VL: B8 VL with M4L, G28D, N53S, A91E, S92L, V93A, F96R
B11: MAB14 IgG4 S228P (antibody, V domains shown)
VH: B10 VH with I37S, S84P
VL: B8 VL with M4L, G28D, N53S, A91E, S92L, V93A, F96R
B12: MAB4 IgG4 S228P (antibody, V domains shown)
VH: B9 VH with A2V, A109V
VL: B8 VL with S31R, N53S, S92N, V93L, F94L
B13: anti-NRP Antibody SEC10 (antibody, human IgG1, kappa, V domains shown)
VH: EVQLVESGGGLVQPGGSLRLSCAASGFTFSSYAMSWVRQAPGKGLEWVSQISPAGGYTNYADSVKGRFTISADTSKNTAYLQMNSLRAEDTAVYYCARGELPYYRMSKVMDVWGQGTLVTVSS
VL: DIQMTQSPSSLSASVGDRVTITCRASQYFSSYLAWYQQKPGKAPKLLIYGASSRASGVPSRFSGSGSGTDFTLTISSLQPEDFATYYCQQYLGSPPTFGQGTKVEIKR
B14: MAB7 (antibody, V domains shown)
VH: EVQLVESGGGLVQPGGSLRLSCAASGFTFSSYWMEWVRQAPGKGLEWVARIKRDGSEKYYVDSVKGRFTISRDNAKNSLYLQMNSLRAEDTAVYYCARDQGYKTPTDFDLWGRGTLVTVSS
VL: DIQMTQSPSSLSASVGDRVTITCQASQDITNYLNWYQQKPGKAPKLLIYDASNLETGVPSRFSGSGSGTDFTFTISSLQPEDIATYYCQQSDVLPITFGGGTKVEIK

Legend:
Human NRP-1 His [1] = target: T2, Human NRP-1 His (human, UniProt O14786 22-856); assay: BLI ForteBio, IgG1 N297A on AHQ sensor, 100 nM monomeric antigen, 1:1 fit
T2 construct: Recombinant monomeric protein; Biotinylated in the MSD-SET assay; also called hNRP-1; not shown: His tag
T2 sequence (O14786 22-856 V179A limits assumed): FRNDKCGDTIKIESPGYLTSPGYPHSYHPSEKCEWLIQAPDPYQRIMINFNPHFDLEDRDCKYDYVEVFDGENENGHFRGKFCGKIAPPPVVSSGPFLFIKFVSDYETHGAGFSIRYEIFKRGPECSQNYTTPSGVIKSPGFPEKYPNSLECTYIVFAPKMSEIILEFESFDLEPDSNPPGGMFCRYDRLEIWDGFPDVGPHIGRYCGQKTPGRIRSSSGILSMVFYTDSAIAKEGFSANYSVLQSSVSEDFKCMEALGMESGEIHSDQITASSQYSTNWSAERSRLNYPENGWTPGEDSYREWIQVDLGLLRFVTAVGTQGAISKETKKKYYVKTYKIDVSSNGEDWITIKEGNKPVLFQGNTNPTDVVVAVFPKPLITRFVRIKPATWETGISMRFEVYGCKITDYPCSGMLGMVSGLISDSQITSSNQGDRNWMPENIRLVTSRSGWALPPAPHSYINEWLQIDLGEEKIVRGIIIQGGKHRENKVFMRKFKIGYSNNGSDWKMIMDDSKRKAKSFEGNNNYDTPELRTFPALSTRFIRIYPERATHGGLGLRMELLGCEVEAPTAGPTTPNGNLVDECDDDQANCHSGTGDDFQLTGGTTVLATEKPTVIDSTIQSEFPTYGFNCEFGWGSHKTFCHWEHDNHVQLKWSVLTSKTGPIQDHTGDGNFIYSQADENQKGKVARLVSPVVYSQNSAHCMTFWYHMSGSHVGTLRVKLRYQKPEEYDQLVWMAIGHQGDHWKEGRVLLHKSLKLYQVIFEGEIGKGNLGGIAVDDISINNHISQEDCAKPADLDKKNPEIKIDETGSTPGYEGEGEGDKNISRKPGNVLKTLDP

Cyno NRP-1 His [2] = target: T1, Cyno NRP-1 His; assay: as above
Mouse NRP-1 His [3] = target: T3, Mouse NRP-1 His (mouse, UniProt P97333 22-856); assay: as above
T3 construct: Recombinant monomeric protein; also called mNRP-1; not shown: His tag
T3 sequence (P97333 22-856 limits assumed): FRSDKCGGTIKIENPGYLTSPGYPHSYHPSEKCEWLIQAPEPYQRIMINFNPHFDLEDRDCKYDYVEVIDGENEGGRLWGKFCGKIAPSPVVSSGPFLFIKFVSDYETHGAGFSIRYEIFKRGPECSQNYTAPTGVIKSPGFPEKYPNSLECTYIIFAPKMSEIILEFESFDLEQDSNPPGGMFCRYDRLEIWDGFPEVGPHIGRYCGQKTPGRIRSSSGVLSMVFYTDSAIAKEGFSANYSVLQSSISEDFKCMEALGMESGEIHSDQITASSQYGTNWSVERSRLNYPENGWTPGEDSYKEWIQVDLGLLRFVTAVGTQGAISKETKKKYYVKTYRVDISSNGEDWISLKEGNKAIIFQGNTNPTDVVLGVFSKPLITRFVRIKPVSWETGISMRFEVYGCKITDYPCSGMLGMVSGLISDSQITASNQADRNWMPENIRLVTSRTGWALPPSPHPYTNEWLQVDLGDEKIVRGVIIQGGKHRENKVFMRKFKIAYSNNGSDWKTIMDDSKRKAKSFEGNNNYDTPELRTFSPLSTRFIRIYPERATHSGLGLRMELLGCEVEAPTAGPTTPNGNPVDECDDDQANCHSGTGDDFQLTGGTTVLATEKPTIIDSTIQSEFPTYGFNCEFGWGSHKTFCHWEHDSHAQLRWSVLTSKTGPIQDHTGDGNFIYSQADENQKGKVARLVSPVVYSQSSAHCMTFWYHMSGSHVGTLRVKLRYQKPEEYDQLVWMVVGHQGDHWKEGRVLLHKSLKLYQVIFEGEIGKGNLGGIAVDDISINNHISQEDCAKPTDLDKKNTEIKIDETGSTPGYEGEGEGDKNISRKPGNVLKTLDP

recombinant human NRP-1 [4] = target: T4, recombinant human NRP-1 (human, UniProt O14786 22-856, limits assumed); assay: blocking ELISA: human NRP-1 coated, VEGFA added with IgG1 antibody; competitor VEGFA
T4 construct: also called biotinylated human NRP-1
Target sequence in this assay (O14786 22-856 V179A limits assumed): as the sequence (O14786 22-856 V179A limits assumed) above

recombinant human NRP-1 [5] = target: T4, recombinant human NRP-1; assay: blocking ELISA: SEMA3A coated, biotinylated human NRP-1 preincubated with IgG1 antibody; competitor SEMA3A
Target sequence in this assay (O14786 22-856 V179A limits assumed): as above

Human NRP-1 His [6] = target: T2, Human NRP-1 His; assay: BLI Octet QKe, IgG4 S228P on AHC sensor, multi-concentration monomeric antigen, global 1:1 fit
Cyno NRP-1 His [7] = target: T1, Cyno NRP-1 His; assay: as above
Mouse NRP-1 His [8] = target: T3, Mouse NRP-1 His; assay: as above
recombinant human NRP-1 [9] = target: T4, recombinant human NRP-1; assay: blocking ELISA, average of n=2: human NRP-1 coated, VEGFA added with IgG4 antibody; competitor VEGFA
recombinant human NRP-1 [10] = target: T4, recombinant human NRP-1; assay: blocking ELISA, average of n=2: SEMA3A coated, biotinylated human NRP-1 preincubated with IgG4 antibody; competitor SEMA3A
Target sequence in this assay (O14786 22-856 V179A limits assumed): as above

[11] = target: T5, Recombinant human NRP-1-Fc fusion protein, a2b1b2 domains (human, UniProt O14786 147-583, limits assumed); assay: BLI Octet QKe, antibody on AHC sensor, NRP-1-Fc fragment 500 nM
T5 construct: Only the named domains of hNRP-1 are in the construct; not shown: Fc
T5 sequence (O14786 147-583 V179A limits assumed): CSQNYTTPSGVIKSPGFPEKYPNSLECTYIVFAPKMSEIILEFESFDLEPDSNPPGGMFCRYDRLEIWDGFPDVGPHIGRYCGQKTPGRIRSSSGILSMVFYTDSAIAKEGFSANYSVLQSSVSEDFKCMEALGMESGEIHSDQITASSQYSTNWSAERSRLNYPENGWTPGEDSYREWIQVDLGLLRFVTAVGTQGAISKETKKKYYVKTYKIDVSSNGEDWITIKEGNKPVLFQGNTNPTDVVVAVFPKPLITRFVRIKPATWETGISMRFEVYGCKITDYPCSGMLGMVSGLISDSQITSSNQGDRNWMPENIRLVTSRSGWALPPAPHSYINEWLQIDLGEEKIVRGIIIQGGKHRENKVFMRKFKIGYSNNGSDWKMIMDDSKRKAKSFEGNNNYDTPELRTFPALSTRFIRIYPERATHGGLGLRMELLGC

[12] = target: T6, Recombinant human NRP-1-Fc fusion protein, a1a2b1b2 domains (human, UniProt O14786 22-583, limits assumed); assay: as above
T6 construct: Only the named domains of hNRP-1 are in the construct; not shown: Fc

Row | Binder | Kd (Human NRP-1 His [1]) | Kd (Cyno NRP-1 His [2]) | Kd (Mouse NRP-1 His [3]) | IC50 (recombinant human NRP-1 [4]) | IC50 (recombinant human NRP-1 [5]) | Kd (Human NRP-1 His [6]) | Kd (Cyno NRP-1 His [7]) | Kd (Mouse NRP-1 His [8]) | IC50 (recombinant human NRP-1 [9]) | IC50 (recombinant human NRP-1 [10]) | binding result [11] | binding result [12]
1 | B1 | 0.868 nM | 0.866 nM | 0.746 nM | 6.7 nM | 1.5 nM |  |  |  |  |  |  | 
2 | B2 |  |  |  |  |  | 0.12 nM | 0.19 nM | 0.16 nM | 3.2 nM | 1.2 nM |  | 
3 | B3 | 0.613 nM | 0.642 nM | 0.552 nM | 7.3 nM | 2 nM |  |  |  |  |  |  | 
4 | B4 | 0.485 nM | 0.48 nM | 0.446 nM | 5.9 nM | 0.8 nM |  |  |  |  |  |  | 
5 | B5 | 0.645 nM | 0.643 nM | 0.566 nM | 6.5 nM | 1.8 nM |  |  |  |  |  |  | 
6 | B6 |  |  |  |  |  | 8.4 nM | 12 nM | 6.6 nM |  | 2.9 nM |  | 
7 | B7 | 4.72 nM | 5.54 nM | 6.98 nM | 7.4 nM | 1.8 nM |  |  |  |  |  |  | 
8 | B8 |  |  |  |  |  | 2.4 nM | 4.5 nM | 5.1 nM |  | 2.6 nM |  | 
9 | B9 |  |  |  |  |  | 3.7 nM | 7.3 nM | 4.4 nM |  | 2 nM |  | 
10 | B10 |  |  |  |  |  | 0.96 nM | 0.94 nM | 3.7 nM | 2.9 nM | 0.9 nM |  | 
11 | B11 |  |  |  |  |  | 0.87 nM | 0.74 nM | 2.7 nM | 2.5 nM | 0.6 nM |  | 
12 | B12 |  |  |  |  |  | 3.1 nM | 4.5 nM | 2.3 nM |  | 2.3 nM |  | 
13 | B13 |  |  |  |  |  |  |  |  |  |  | binds | binds
14 | B14 | 11.2 nM | 10.9 nM | 14.7 nM | 6.9 nM | 1.7 nM |  |  |  |  |  |  | 
